Test results: the supplement of paper PMC6757056
± gives the standard deviation of the averaged measurements.

B1: library; a variant is named by its letters at N, in order (parent)
chain: GCUGUCACCGGUGCUUGGUACGUUAUAUUCAGCCGGUCUGAUGAGUCUNNNNNNAGACGAAACAGC

Assays:
[1] = variants of: B1; assay: FACS-Seq fitted mean relative fluorescence mCherry/BFP without ligand (log10 relative fluorescence); HEK293T overexpressing SLC46A1; higher = higher reporter protein expression; details: without (6R,S)-folinic acid; ligand present: no
Summary of the method: (§1)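 Enriched HEK293T cells carrying, by lentivirus, an mCherry reporter with the ribozyme switch and an EF1α-BFP marker spent 48 h with or without ligand and were sorted into 6 bins by mCherry/BFP. MiSeq sequencing of PCR-amplified bin genomic DNA gave bin counts. Fluorescence was calculated as the fitted normal mean of those counts. Counts were binned on log10(mCherry/BFP), and means were scaled to five spiked-in control ribozymes.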

[2] = variants of: B1; assay: normalized RNA/DNA level without ligand (relative to sTRSVctl = 100) (log10 (% of sTRSVctl)); HEK293T overexpressing SLC46A1; higher = less ribozyme self-cleavage, higher mRNA level; details: without (6R,S)-folinic acid; ligand present: no
Summary of the method: (§2)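 HEK293T cells were transfected with library plasmids carrying ribozyme switches linked to an mCherry reporter, or an eGFP reporter in some ligand experiments, at 4 µg per well of a 6-well plate, with any ligand added 1 h beforehand. After 72 h, total RNA was extracted with EDTA, reverse-transcribed, amplified, barcoded and sequenced. RNA level was defined as RNA reads over DNA reads, normalized to a spiked-in non-cleaving sequence or to the top-ranked sequences. That value was multiplied by 100 and converted to log10, the top set was 25 sequences, and only sequences with ≥100 DNA reads were retained.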

[3] = variants of: B1; assay: FACS-Seq fitted mean relative fluorescence mCherry/BFP with ligand (log10 relative fluorescence); HEK293T overexpressing SLC46A1; ligand concentration (+) FACS-Seq: 6 mM; higher = higher reporter protein expression; details: with (6R,S)-folinic acid; ligand present: yes
Summary of the method: as §1

[4] = variants of: B1; assay: normalized RNA/DNA level with ligand (relative to sTRSVctl = 100) (log10 (% of sTRSVctl)); HEK293T overexpressing SLC46A1; ligand concentration (+) RNA-Seq: 6 mM; higher = less ribozyme self-cleavage, higher mRNA level; details: with (6R,S)-folinic acid; ligand present: yes
Summary of the method: as §2

Variant | FACS-Seq fitted mean (log10) [1] | normalized RNA/DNA level without ligand (log10) [2] | FACS-Seq fitted mean (log10) [3] | normalized RNA/DNA level with ligand (log10) [4]
GCUGUCACCGGUGCUUGGUACGUUAUAUUCAGCCGGUCUGAUGAGUCUACAAGGAGACGAAACAGC | 0.526 ± 0.062 | 1.913 ± 0.014 | 0.524 ± 0.13 | 2.016 ± 0.014
GCUGUCACCGGUGCUUGGUACGUUAUAUUCAGCCGGUCUGAUGAGUCUCCAAGUAGACGAAACAGC | 0.0806 ± 0.0022 | 2.038 ± 0.0087 | 0.036 ± 0.024 | 2.04 ± 0.047
GCUGUCACCGGUGCUUGGUACGUUAUAUUCAGCCGGUCUGAUGAGUCUACAAUAAGACGAAACAGC | 0.486 ± 0.011 | 1.981 ± 0.0063 | 0.509 ± 0.16 | 2.004 ± 0.02
GCUGUCACCGGUGCUUGGUACGUUAUAUUCAGCCGGUCUGAUGAGUCUACAAUGAGACGAAACAGC | 0.173 ± 0.021 | 1.96 ± 0.02 | 0.372 ± 0.11 | 2.03 ± 0.033
GCUGUCACCGGUGCUUGGUACGUUAUAUUCAGCCGGUCUGAUGAGUCUUCAAUGAGACGAAACAGC | 0.183 ± 0.076 | 1.814 ± 0.0085 | 0.195 ± 0.15 | 2 ± 0.037
GCUGUCACCGGUGCUUGGUACGUUAUAUUCAGCCGGUCUGAUGAGUCUCCACAAAGACGAAACAGC | 0.496 ± 0.0082 | 1.969 ± 0.0044 | 0.422 ± 0.22 | 1.96 ± 0.016
GCUGUCACCGGUGCUUGGUACGUUAUAUUCAGCCGGUCUGAUGAGUCUGCACAAAGACGAAACAGC | -0.45 ± 0.18 | 1.9848 ± 8e-05 | -1.15 ± 0.17 | 2 ± 0.039
GCUGUCACCGGUGCUUGGUACGUUAUAUUCAGCCGGUCUGAUGAGUCUGCACACAGACGAAACAGC | -0.179 ± 0.1 | 1.966 ± 0.0048 | -0.0397 ± 0.2 | 2 ± 0.037
GCUGUCACCGGUGCUUGGUACGUUAUAUUCAGCCGGUCUGAUGAGUCUACACAUAGACGAAACAGC | 0.23 ± 0.019 | 1.965 ± 0.0028 | 0.348 ± 0.25 | 2 ± 0.043
GCUGUCACCGGUGCUUGGUACGUUAUAUUCAGCCGGUCUGAUGAGUCUACACCAAGACGAAACAGC | 0.658 ± 0.22 | 2.035 ± 0.0068 | 0.462 ± 0.1 | 2.03 ± 0.022
GCUGUCACCGGUGCUUGGUACGUUAUAUUCAGCCGGUCUGAUGAGUCUACACCGAGACGAAACAGC | 0.142 ± 0.015 | 1.99 ± 0.022 | 0.198 ± 0.14 | 2.01 ± 0.022
